Positions count from the first letter of the chain named. One block for each binder: values may come before it.
Tests used:
human MUC16 (mucin 16) [1] = target: T1, human MUC16 (mucin 16) (human); assay: MSD ECL cell binding, RLU ratio OVCAR-3 vs SK-OV-3, 16.7 nM Ab; NS = ratio <2.5-fold
T1 construct: Endogenously expressed on human tumour cell lines; also called hMUC16
Protocol: The ability of anti-MUC16 antibodies to bind specifically to endogenously expressing MUC16 on the human ovarian carcinoma cell line (OVCAR-3) was evaluated via an electrochemiluminescence based detection assay (Meso Scale Discovery (MSD), Rockville, Md.). […] Detached cells were then washed once in 1×PBS supplemented with Ca²⁺/Mg²⁺ and counted (Cellometer Auto T4 cell counter, Nexcelom Bioscience, Lawrence, Mass.). Approximately 1.0×10⁴ cells were plated in MULTI-ARRAY 96-well carbon electrode plates (MSD) and incubated for 1 h at 37° C. […] Next, serial dilutions of anti-MUC16 or control antibodies (0.85 pM-50 nM) and no-antibody buffer controls were added to the plate-bound cells and incubated for 1 h at room temperature (RT). […] Plate-bound antibodies were detected with a SULFO-TAG™-conjugated anti-human kappa light chain antibody (Regeneron) or a SULFO-TAG™-conjugated anti-mouse IgG antibody (Jackson Immunoresearch, West Grove, Pa.) for 1 h at RT. Post-wash, plates were developed with Read Buffer (MSD) according to manufacturer's protocol and luminescent signals were recorded with a SECTOR Imager 6000 (MSD) instrument.
(§1) Luminescence intensity, measured in relative light units (RLU), for the two cell lines was recorded to indicate the binding intensity of each antibody.

human MUC16 (mucin 16) [2] = target: T1, human MUC16 (mucin 16); assay: MSD ECL cell binding, RLU ratio OVCAR-3 vs SK-OV-3, 1.9 nM Ab
Protocol: The ability of anti-MUC16 antibodies to bind specifically to endogenously expressing MUC16 on the human ovarian carcinoma cell line (OVCAR-3) was evaluated via an electrochemiluminescence based detection assay (Meso Scale Discovery (MSD), Rockville, Md.). […] Detached cells were then washed once in 1×PBS supplemented with Ca²⁺/Mg²⁺ and counted (Cellometer Auto T4 cell counter, Nexcelom Bioscience, Lawrence, Mass.). Approximately 1.0×10⁴ cells were plated in MULTI-ARRAY 96-well carbon electrode plates (MSD) and incubated for 1 h at 37° C. […] Next, serial dilutions of anti-MUC16 or control antibodies (0.85 pM-50 nM) and no-antibody buffer controls were added to the plate-bound cells and incubated for 1 h at room temperature (RT). Plates were then washed to remove the unbound antibodies using an AquaMax2000 plate washer (MDS Analytical Technologies, Sunnyvale, Calif.). Plate-bound antibodies were detected with a SULFO-TAG™-conjugated anti-human kappa light chain antibody (Regeneron) or a SULFO-TAG™-conjugated anti-mouse IgG antibody (Jackson Immunoresearch, West Grove, Pa.) for 1 h at RT. Post-wash, plates were developed with Read Buffer (MSD) according to manufacturer's protocol and luminescent signals were recorded with a SECTOR Imager 6000 (MSD) instrument.
as §1

human MUC16 (mucin 16) [3] = target: T1, human MUC16 (mucin 16); assay: FACS binding titration on PEO-1 (MUC16+) cells
Protocol: (§2) A. Briefly, flow cytometric analysis (i.e. fluorescence-activated cell sorting, or FACS) was utilized to determine binding of bispecific antibodies to Jurkat cells or cells expressing human MUC16, followed by detection with a phycoerythrin (PE)-labeled or APC-labeled anti-human IgG antibody. […] After incubation, the cells were washed twice with cold PBS containing 1% filtered FBS and a PE-conjugated or APC-conjugated anti-human secondary antibody was added to the cells and incubated for an additional 30 minutes. Wells containing no antibody or secondary only were also used as controls. After incubation, cells were washed, re-suspended in 200 μL cold PBS containing 1% filtered FBS and analyzed by flow cytometry on a BD FACS Canto II.
B. In separate experiments with analogous conditions to that described above, flow cytometric analysis (or FACS) was utilized to determine binding of select bispecific antibodies to Jurkat cells, PEO-1, OVCAR3-Luc and cynomolgus T cells. For the titration analysis, serial dilution of selected MUC16×CD3 bispecific antibodies, a first isotype control antibody (a human chimeric IgG4 antibody that binds an irrelevant human antigen with no cross-reactivity to human or cynomolgus CD3) and a second isotype control antibody (a human chimeric IgG4 antibody that binds an irrelevant human antigen with no cross-reactivity to human MUC16), ranging from 66.6 nM to 0.001 nM.
(§3) For FACS analysis, cells were gated by forward scatter height vs. forward scatter area for single events selection, followed by side and forward scatters. The EC50 for cell binding titration was determined using PRISM™ software (GraphPad Software, Inc., La Jolla, Calif.). Values were calculated using 4-parameter non-linear regression analysis. (Liu, J., et al. 2005, Biotechnol Letters 27:1821-1827).

human MUC16 (mucin 16) [4] = target: T1, human MUC16 (mucin 16); assay: cell-based or functional assay
human MUC16 (mucin 16) [5] = target: T1, human MUC16 (mucin 16); assay: cell-based or functional assay; remark: listed apart in the source
human MUC16 (mucin 16) [6] = target: T1, human MUC16 (mucin 16); assay: FACS binding titration on OVCAR3-Luc (MUC16+) cells
Protocol: as §2
B. In separate experiments with analogous conditions to that described above, flow cytometric analysis (or FACS) was utilized to determine binding of select bispecific antibodies to Jurkat cells, PEO-1, OVCAR3-Luc and cynomolgus T cells. […]
as §3, with “(Liu, J., et al. 2005, Biotechnol Letters 27:1821-1827).” left out

human MUC16 (mucin 16) [7] = target: T1, human MUC16 (mucin 16); assay: cell-based or functional assay; remark: listed apart in the source
human MUC16 (mucin 16) [8] = target: T1, human MUC16 (mucin 16); assay: FACS binding titration on OVCAR3 (MUC16+) cells

Ratio anti-MUC16 Binding OVCAR-3/SK-OV-3 (human MUC16 (mucin 16) [1]): < 2.5 ratio
Ratio anti-MUC16 Binding OVCAR-3/SK-OV-3 (human MUC16 (mucin 16) [2]): 4 ratio
B1: H1H8808P (antibody, human IgG1, V domains shown)
VH: QVQLVESGGGVVQPGRSLRLSCVASGFTFSNYGIHWVRQAPGKGLEWVAVISDDGSFKFYADSVKGRFTISRDNSKNTLYLQMNSLRVEDSAVYHCAKWQHNWNDGGFDYWGQGTLVTVSS
VL: EIVLTQSPDTLSLSPGERATLSCRASQSLSSNYLAWYRQKPGQAPRLLIYGISSRATGIPDRFSGSGSGTDFTLTISRLEPEDFAVYYCQQYGSSPWTFGQGTKVEIK
notes: Human IgG1

EC50 (human MUC16 (mucin 16) [3]): 2.63 nM
OVCAR3-Luc cell depletion EC50 (human MUC16 (mucin 16) [4]): 0.0516 nM
PEO-1 cell depletion EC50 (human MUC16 (mucin 16) [5]): 0.0774 nM
EC50 (human MUC16 (mucin 16) [6]): 1.47 nM
B2: BSMUC16/CD3-005 (bispecific antibody, V domains shown)
VH 1: QVQLVESGGGLVKPGGSLRLSCAASGFTFSNYYMSWVRQAPGKGLEWISYISGRGSTIFYADSVKGRITISRDNAKNSLFLQMNSLRAEDTAVYFCVKDRGGYSPYWGQGTLVTVSS
VH 2: EVQLVESGGGLVQPGRSLRLSCAASGFTFDDYSMHWVRQAPGKGLEWVSGISWNSGSIGYADSVKGRFTISRDNAKNSLYLQMNSLRAEDTALYYCAKYGSGYGKFYYYGMDVWGQGTTVTVSS
VL: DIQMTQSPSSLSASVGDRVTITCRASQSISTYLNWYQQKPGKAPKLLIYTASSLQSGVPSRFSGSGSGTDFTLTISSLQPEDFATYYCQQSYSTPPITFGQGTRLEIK
notes: Anti-MUC16 HCVR of H1H8767P, anti-CD3 HCVR CD3-VH-G20, common light chain of H1H8767P; also called anti-MUC16xCD3 bispecific antibody with CD3-VH-G20 arm; REGN4019

Ratio anti-MUC16 Binding OVCAR-3/SK-OV-3 (human MUC16 (mucin 16) [1]): < 2.5 ratio
Ratio anti-MUC16 Binding OVCAR-3/SK-OV-3 (human MUC16 (mucin 16) [2]): 4 ratio
B3: H1H8767P (antibody, human IgG1, V domains shown)
VH: B2 VH 1
VL: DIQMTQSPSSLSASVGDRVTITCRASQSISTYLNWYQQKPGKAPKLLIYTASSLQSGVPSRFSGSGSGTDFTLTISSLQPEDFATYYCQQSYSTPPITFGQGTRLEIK
notes: Human IgG1

EC50 (human MUC16 (mucin 16) [3]): 3.02 nM
OVCAR3-Luc cell depletion EC50 (human MUC16 (mucin 16) [4]): 0.0154 nM
PEO-1 cell depletion EC50 (human MUC16 (mucin 16) [5]): 0.0256 nM
OVCAR3 cell depletion EC50 (human MUC16 (mucin 16) [7]): 0.0224 nM
EC50 (human MUC16 (mucin 16) [8]): 1.2 nM
EC50 (human MUC16 (mucin 16) [6]): 1.32 nM
B4: BSMUC16/CD3-001 (bispecific antibody, V domains shown)
VH 1: B2 VH 1
VH 2: B2 VH 2 with I58K, Y108H, M111L
VL: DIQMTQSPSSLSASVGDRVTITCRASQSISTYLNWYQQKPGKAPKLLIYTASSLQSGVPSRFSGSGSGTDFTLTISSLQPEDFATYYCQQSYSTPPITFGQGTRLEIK
notes: Anti-MUC16 HCVR of H1H8767P, anti-CD3 HCVR CD3-VH-G, common light chain of H1H8767P; also called anti-MUC16xCD3 bispecific antibody with CD3-VH-G arm

EC50 (human MUC16 (mucin 16) [3]): 3.13 nM
PEO-1 cell depletion EC50 (human MUC16 (mucin 16) [5]): 0.0675 nM
OVCAR3 cell depletion EC50 (human MUC16 (mucin 16) [7]): 0.0306 nM
EC50 (human MUC16 (mucin 16) [8]): 2.69 nM
B5: BSMUC16/CD3-002 (bispecific antibody, V domains shown)
VH 1: B2 VH 1
VH 2: B2 VH 2 with Y99D
VL: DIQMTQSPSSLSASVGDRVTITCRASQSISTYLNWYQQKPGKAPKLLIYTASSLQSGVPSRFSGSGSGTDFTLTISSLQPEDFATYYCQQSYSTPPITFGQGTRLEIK
notes: Anti-MUC16 HCVR of H1H8767P, anti-CD3 HCVR CD3-VH-G5, common light chain of H1H8767P; also called anti-MUC16xCD3 bispecific antibody with CD3-VH-G5 arm
